Results: article PMC9352680, “A comprehensive thermodynamic model for RNA binding by the Saccharomyces cerevisiae Pumilio protein PUF4”
Substitutions are numbered along the chain they refer to. Names and notes keep the numbering of the source.

T1: PUF4 RNA-binding domain (Saccharomyces cerevisiae, UniProt P25339 537-888)
T1 sequence: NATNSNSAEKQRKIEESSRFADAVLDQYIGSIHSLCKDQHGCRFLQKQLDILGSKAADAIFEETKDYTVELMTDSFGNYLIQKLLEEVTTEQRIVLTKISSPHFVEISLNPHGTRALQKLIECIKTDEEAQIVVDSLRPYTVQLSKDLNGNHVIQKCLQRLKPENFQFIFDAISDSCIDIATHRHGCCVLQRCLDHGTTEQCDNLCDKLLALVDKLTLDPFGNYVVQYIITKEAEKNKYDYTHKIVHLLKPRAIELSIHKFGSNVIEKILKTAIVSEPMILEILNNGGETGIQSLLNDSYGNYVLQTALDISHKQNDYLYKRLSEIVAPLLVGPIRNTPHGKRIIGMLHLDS

B1: Ic_S2_P5E.1_K5.1_C5.1_H5.1_A5.1_[T5G]_[T6C]_[A7T]_F5.1_[A10T]_T5.1 (ssRNA)
RNA: UUUGAUUAAUAUGAUAUCGUUCUUUCUUGUAGCUUUUUUCUUUCUCGAUAUCAUAUUAAUCUUU
B2: Ic_S2_P5E.1_K5.1_C5.1_H5.1_A5.1_[T5G]_[T6C]_F5.1_[T8C]_[T9C]_[A10G]_T5.1 (ssRNA)
RNA: B1 RNA with U34A, U35C, U36C, U37G
B3: Ic_S2_P5E.1_K5.1_C5.1_H5.1_A5.1_[T5A]_[T6C]_[A7C]_F5.1_[T9A]_[A10G]_T5.1 (ssRNA)
RNA: B1 RNA with G32A, U34C, U36A, U37G
B4: Ic_S2_P5E.1_K5.1_C5.1_H5.1_A5.1_[T5G]_[T6C]_[A7C]_F5.1_[T9A]_[A10T]_T5.1 (ssRNA)
RNA: B1 RNA with U34C, U36A
B5: Ic_S2_P5E.1_K5.1_C5.1_H5.1_A5.1_[T5C]_[T6G]_[A7T]_F5.1_[T8G]_[T9C]_[A10C]_T5.1 (ssRNA)
RNA: B1 RNA with G32C, C33G, U35G, U36C, U37C
B6: Ic_S2_P5E.1_K5.1_C5.1_H5.1_A5.1_[A7T]_F5.1_[T9C]_[A10G]_T5.1 (ssRNA)
RNA: B1 RNA with G32U, C33U, U36C, U37G
B7: Ic_S2_P5E.1_K5.1_C5.1_H5.1_A5.1_[T5C]_F5.1_[T8A]_[T9A]_[A10T]_T5.1 (ssRNA)
RNA: B1 RNA with G32C, C33U, U34A, U35A, U36A
B8: Ic_S2_P5E.1_K5.1_C5.1_H5.1_A5.1_[T5A]_[T6C]_[A7C]_F5.1_[T9A]_[A10T]_T5.1 (ssRNA)
RNA: B1 RNA with G32A, U34C, U36A
B9: Ic_S2_P5E.1_K5.1_C5.1_H5.1_A5.1_[T5C]_[T6A]_[A7C]_F5.1_[T8A]_[T9A]_T5.1 (ssRNA)
RNA: B1 RNA with G32C, C33A, U34C, U35A, U36A, U37A
B10: Ic_S2_P5E.1_K5.1_C5.1_H5.1_A5.1_[T5A]_[T6A]_[A7C]_F5.1_[T8G]_[T9C]_[A10C]_T5.1 (ssRNA)
RNA: B1 RNA with G32A, C33A, U34C, U35G, U36C, U37C
B11: Ic_S2_P5E.1_K5.1_C5.1_H5.1_A5.1_[T6A]_[A7C]_F5.1_[T8C]_[T9A]_[A10T]_T5.1 (ssRNA)
RNA: B1 RNA with G32U, C33A, U34C, U35C, U36A
B12: Ic_S2_P5E.1_K5.1_C5.1_H5.1_A5.1_[T5G]_[A7C]_F5.1_[T8G]_[A10G]_T5.1 (ssRNA)
RNA: B1 RNA with C33U, U34C, U35G, U37G
B13: Ic_S2_P5E.1_K5.1_C5.1_H5.1_A5.1_[A7T]_F5.1_[T8A]_[A10G]_T5.1 (ssRNA)
RNA: B1 RNA with G32U, C33U, U35A, U37G
B14: Ic_S2_P5E.1_K5.1_C5.1_H5.1_A5.1_[T5C]_[T6G]_[A7T]_F5.1_[T8C]_[T9C]_[A10C]_T5.1 (ssRNA)
RNA: B1 RNA with G32C, C33G, U35C, U36C, U37C
B15: Ic_S2_P5E.1_K5.1_C5.1_H5.1_A5.1_[T6A]_[A7G]_F5.1_[T9C]_[A10C]_T5.1 (ssRNA)
RNA: B1 RNA with G32U, C33A, U34G, U36C, U37C
B16: Ic_S2_P5E.1_K5.1_C5.1_H5.1_A5.1_[T6C]_[A7G]_F5.1_[T8C]_[T9C]_[A10G]_T5.1 (ssRNA)
RNA: B1 RNA with G32U, U34G, U35C, U36C, U37G
B17: Ic_S2_P5E.1_K5.1_C5.1_H5.1_A5.1_[T5A]_[T6C]_[A7T]_F5.1_[T8C]_[T9A]_T5.1 (ssRNA)
RNA: B1 RNA with G32A, U35C, U36A, U37A
B18: Ic_S2_P5E.1_K5.1_C5.1_H5.1_A5.1_[T6G]_[A7C]_F5.1_[T8C]_[T9G]_[A10G]_T5.1 (ssRNA)
RNA: B1 RNA with G32U, C33G, U34C, U35C, U36G, U37G
B19: Ic_S2_P5E.1_K5.1_C5.1_H5.1_A5.1_[A7T]_F5.1_[T8C]_[T9A]_T5.1 (ssRNA)
RNA: B1 RNA with G32U, C33U, U35C, U36A, U37A
B20: Ic_S2_P5E.1_K5.1_C5.1_H5.1_A5.1_[T6C]_[A7T]_F5.1_[T8A]_[T9G]_[A10C]_T5.1 (ssRNA)
RNA: B1 RNA with G32U, U35A, U36G, U37C
B21: Ic_S2_P5E.1_K5.1_C5.1_H5.1_A5.1_[T5C]_[T6G]_[A7T]_F5.1_[T9G]_[A10T]_T5.1 (ssRNA)
RNA: B1 RNA with G32C, C33G, U36G
B22: Ic_S2_P5E.1_K5.1_C5.1_H5.1_A5.1_[T6C]_[A7G]_F5.1_[T8G]_T5.1 (ssRNA)
RNA: B1 RNA with G32U, U34G, U35G, U37A
B23: Ic_S2_P5E.1_K5.1_C5.1_H5.1_A5.1_[T5C]_[T6C]_[A7T]_F5.1_[T8C]_[T9G]_[A10C]_T5.1 (ssRNA)
RNA: B1 RNA with G32C, U35C, U36G, U37C
B24: Ic_S2_P5E.1_K5.1_C5.1_H5.1_A5.1_[T5G]_[T6C]_F5.1_[T8A]_[T9A]_[A10C]_T5.1 (ssRNA)
RNA: B1 RNA with U34A, U35A, U36A, U37C
B25: Ic_S2_P5E.1_K5.1_C5.1_H5.1_A5.1_[T5C]_F5.1_[T8A]_[T9A]_T5.1 (ssRNA)
RNA: B1 RNA with G32C, C33U, U34A, U35A, U36A, U37A
B26: Ic_S2_P5E.1_K5.1_C5.1_H5.1_A5.1_[T6A]_[A7C]_F5.1_[T8C]_[T9A]_[A10C]_T5.1 (ssRNA)
RNA: B1 RNA with G32U, C33A, U34C, U35C, U36A, U37C
B27: Ic_S2_P5E.1_K5.1_C5.1_H5.1_A5.1_[T5C]_[T6C]_[A7G]_F5.1_[T8A]_[T9C]_[A10C]_T5.1 (ssRNA)
RNA: B1 RNA with G32C, U34G, U35A, U36C, U37C
B28: Ic_S2_P5E.1_K5.1_C5.1_H5.1_A5.1_[T5C]_[A7C]_F5.1_[T8A]_[T9G]_[A10C]_T5.1 (ssRNA)
RNA: B1 RNA with G32C, C33U, U34C, U35A, U36G, U37C
B29: Ic_S2_P5E.1_K5.1_C5.1_H5.1_A5.1_[T5A]_[T6C]_[A7T]_F5.1_[T8A]_[T9G]_[A10T]_T5.1 (ssRNA)
RNA: B1 RNA with G32A, U35A, U36G

Target: T1, PUF4 RNA-binding domain
Assay: Mg; RNA-MaP; 20 mM Na-HEPES pH 7.4, 30 mM KOAc, 0.75 mM MgCl2, 0.1% Tween-20, 5% glycerol, 0.1 mg/mL BSA, 2 mM DTT; 25 C; 0.0125-409.6 nM protein
Settings: tags: N-His6-TEV cleaved; C-SNAP kept, Cy3B-labelled; label: tethered on chip by stalled RNA polymerase

| Binder | Kd [nM] |
| --- | --- |
| B1 | 37.5 |
| B2 | 1330 |
| B3 | 28.5 |
| B4 | 4.62 |
| B5 | 205 |
| B6 | 42.9 |
| B7 | 25.3 |
| B8 | 4.74 |
| B9 | 10.8 |
| B10 | 611 |
| B11 | 13.7 |
| B12 | 492 |
| B13 | 15.8 |
| B14 | 167 |
| B15 | 17.8 |
| B16 | 1530 |
| B17 | 1040 |
| B18 | 1340 |
| B19 | 389 |
| B20 | 23.8 |
| B21 | 31.8 |
| B22 | 37.7 |
| B23 | 101 |
| B24 | 653 |
| B25 | 55.1 |
| B26 | 31.2 |
| B27 | 1140 |
| B28 | 818 |
| B29 | 737 |
